According to paper PMC6689063:

Target: T1, AztC from Paracoccus denitrificans (WT PdAztC), solute binding protein of the AztABC zinc transporter (Paracoccus denitrificans PD1222) (UniProt A1B2F3)
T1 sequence: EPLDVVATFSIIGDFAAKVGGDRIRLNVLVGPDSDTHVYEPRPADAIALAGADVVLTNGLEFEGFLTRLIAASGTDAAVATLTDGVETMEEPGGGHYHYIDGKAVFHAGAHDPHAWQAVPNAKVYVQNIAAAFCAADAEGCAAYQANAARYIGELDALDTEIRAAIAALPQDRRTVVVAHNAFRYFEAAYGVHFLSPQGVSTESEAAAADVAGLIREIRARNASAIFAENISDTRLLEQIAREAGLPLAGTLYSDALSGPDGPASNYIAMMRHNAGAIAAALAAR

B1: ΔS1 PdAztD (H124A/H167A/H218A) (natural protein)
chain: QDHDHDHEDVTLYRVFVGDHEKGQVTAFDLAEPDHRWTFPTTGQVKLYSVAGGAVVAAVQSDADTVQFIRSGISFHDHGDHRDIEVGDPAAIDASLTGPRPFALVEHDGKVVLNYDQGGYAEILDGHALAEGKAEPGRFPQARAHAGFVAPLGGNWLSTVASDEKVEGDASVPRLGLQAFDAEGNPAGNLATCTGIAGEAFSGAYLAAGCKEGVLTVKAGANGSEYKLLPYPADLPQGVTTGTLLGSTGIQVFLGNYGPDGLVVIDPVDEPHYRYIKLPFRRVDFALDPAKPSTGYVLTEDGSLHRIDLLKAEIVASAKVTEPYSMDGHWNDPRPRIAMAGDEIVVTDPNAGLVRRIATEDLSERGTVPVEGKPYNIAVTGGSGVTH
Question: For B1, which zinc transferred to AztC after incubation of 100 μM each protein with 1 mM EDTA, anion exchange chromatography and zinc quantitation by ICP-OES (equivalent of zinc) is on record?
Answer: 1
